Experiments:
[1] = biological target: T1, recombinant human E-selectin extracellular domain fused with the Fc fragment of human IgM (human, UniProt P16581 22-556); assay: flow cytometry: soluble selectin-IgMFc on bone marrow granulocytes of wild-type and knock-out mice
T1 construct: extracellular domain; Used as COS7 supernatant (pCDM8 plasmid); It was pre-complexed with Cy5-conjugated donkey anti-human IgM F(ab)'2 before the assay; also called E-selectin-IgMFc; selectin-IgMFc; not shown: Fc fragment of human IgM
T1 sequence (looked up): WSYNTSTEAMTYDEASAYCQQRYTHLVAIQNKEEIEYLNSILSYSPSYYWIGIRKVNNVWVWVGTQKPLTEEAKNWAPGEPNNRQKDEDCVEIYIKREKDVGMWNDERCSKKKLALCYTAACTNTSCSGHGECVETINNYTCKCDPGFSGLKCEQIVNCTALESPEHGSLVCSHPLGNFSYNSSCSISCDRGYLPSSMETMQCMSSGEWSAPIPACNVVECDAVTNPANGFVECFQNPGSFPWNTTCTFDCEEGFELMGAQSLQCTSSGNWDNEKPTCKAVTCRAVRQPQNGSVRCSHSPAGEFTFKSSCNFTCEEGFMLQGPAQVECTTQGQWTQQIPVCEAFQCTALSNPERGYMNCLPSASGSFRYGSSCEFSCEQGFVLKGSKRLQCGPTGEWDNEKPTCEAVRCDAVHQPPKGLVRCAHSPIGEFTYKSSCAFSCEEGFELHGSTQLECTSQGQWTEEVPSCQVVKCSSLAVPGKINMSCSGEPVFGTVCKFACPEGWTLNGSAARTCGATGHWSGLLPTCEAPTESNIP
Description: In a second assay, binding of recombinant E-selectin and P-selectin was directly measured in solution by flow cytometry. For this purpose, recombinant human P-selectin or E-selectin extracellular domains fused with the Fc portion of human IgM were used as selectins required prior clustering to bind to their cellular receptors. As IgM are decameric proteins, each fusion recombinant protein is a decamer or either P-selectin or E-selectin. The clustering resulting from decamerization of selectin enables them to directly interact in solution with their cellular receptors. The inventors therefore measured the binding of recombinant selectin-IgM Fc fusion proteins to bone marrow cells isolated from wild-type, PSGL1−/−, CD44−/− or PSGL1−/−CD44−/− double KO mice. Detection by flow cytometry was performed by pre-complexing the selectin-IgMFc fusion proteins with a Cy5-conjubated donkey anti-human IgM antibody. […] Thus these experiments confirm that PSGL1 and CD44 are necessary and sufficient for E-selectin binding to mature granulocytes, hematopoietic stem cells can bind and adhere to E-selectin via alternative receptors which are not encoded by the PSGL1 and C44 genes.
Prior to the experiment, recombinant selectin-IgMFc fusion proteins were complexed with Cy5-conjugated donkey IgG F(ab)′2 fragments anti-human IgM. […]

[2] = biological target: T2, recombinant protein made of the entire extracellular domain of mouse P-selectin fused to the Fc fragment of … (mouse; human, UniProt Q01102 42-709); assay: cell adhesion assay: calcein-labelled cells of wild-type and knock-out mice on wells coated with the fusion protein
T2 construct: extracellular domain; Bought from R&D Systems and adsorbed to polystyrene wells at 3 ug/ml; also called muPsel-IgG1Fc; muP-selectin-IgG1Fc; not shown: Fc fragment of human IgG1
T2 sequence (looked up): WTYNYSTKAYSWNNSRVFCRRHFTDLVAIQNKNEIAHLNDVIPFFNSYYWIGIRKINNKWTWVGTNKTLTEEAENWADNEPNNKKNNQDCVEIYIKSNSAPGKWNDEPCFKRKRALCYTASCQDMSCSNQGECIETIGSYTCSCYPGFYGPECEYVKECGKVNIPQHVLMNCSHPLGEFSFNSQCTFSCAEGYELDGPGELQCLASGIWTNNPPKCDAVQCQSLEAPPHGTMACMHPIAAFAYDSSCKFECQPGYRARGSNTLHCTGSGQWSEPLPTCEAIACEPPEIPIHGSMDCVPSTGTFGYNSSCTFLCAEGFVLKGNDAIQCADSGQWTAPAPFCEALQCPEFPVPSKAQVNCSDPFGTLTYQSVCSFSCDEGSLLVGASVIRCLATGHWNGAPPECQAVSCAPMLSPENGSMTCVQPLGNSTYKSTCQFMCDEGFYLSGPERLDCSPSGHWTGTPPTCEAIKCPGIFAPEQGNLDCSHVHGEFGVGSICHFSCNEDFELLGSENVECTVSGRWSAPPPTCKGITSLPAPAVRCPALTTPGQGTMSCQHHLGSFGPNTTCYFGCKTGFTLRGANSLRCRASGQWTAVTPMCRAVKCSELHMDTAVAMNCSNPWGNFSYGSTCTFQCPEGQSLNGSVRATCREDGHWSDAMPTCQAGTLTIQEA
Experimental: 96-well polystyrene cell culture plates were coated overnight at 4*C with 50 μL per well of phosphate buffered saline containing 3 μg/ml of recombinant proteins made of the entire extracellular domain of mouse E-selectin, P-selectin or VCAM-1/CD106 fused to the Fc fragment of human IgG1 (muEsel-IgG1Fc, muPsel-IgG1Fc, or muVCAM1-IgG1Fc respectively, from R&D Systems)) as previously described 8. Prior to the experiment, plates were flicked to remove excess coating solution and filled with Hepes buffered saline supplemented with 2% bovine serum albumin to block non-specific adhesion to plastic surfaces. […]
Bone marrow cells from CD44 KO, PSGL1 KO and CD44-PSGL1 double KO mice were stained with FITC-conjugated biotinylated rat monoclonal antibodies specific for CD3, CD5. […] Lineage-negative CD117-positive hematopoietic progenitor cells were then sorted by fluorescence activated cell sorting on an Aria cell sorter (BD Biosciences).
Sorted Lineage-negative CD117-positive hematopoietic progenitor cells when then washed and resuspended in cell adhesion buffer and labelled with the intracellular fluorescent dye calcein-AM (Molecular Probes) for 40 minutes at 37° C. […] The fluorescence contained in the remaining adherent cells was measured on a Fluorostar plate fluorometer following exciting at 488 nm using a 530 nm filter.

binding result [1]: binds
binding result [2]: binds
B1: P-selectin glycoprotein ligand-1 (mouse, on bone marrow cells) (receptor, UniProt Q62170 42-397, looked up)
chain: QVVGDDDFEDPDYTYNTDPPELLKNVTNTVAAHPELPTTVVMLERDSTSAGTSERATEKIATTDPTAPGTGGTAVGMLSTDSATQWSLTSVETVQPASTEVETSQPAPMEAETSQPAPMEAETSQPAPMEAETSQPAPMEADTSQPAPMEAETSQPAPNEAETSKPAPTEAETSKPAPTEAETTQLPRIQAVKTLFTTSAATEVPSTEPTTMETASTESNESTIFLGPSVTHLPDSGLKKGLIVTPGNSPAPTLPGSSDLIPVKQCLLIILILASLATIFLVCTVVLAVRLSRKTHMYPVRNYSPTEMICISSLLPEGGDGAPVTANGGLPKVQDLKTEPSGDRDGDDLTLHSFLP
notes: whole, on cells; also called PSGL-1; PSGL1
